Laboratory results taken from US20060194720A1 (SANWA KAGAKU KENKYUSHO, published 2006).
Where no end group is shown, it is not given here.

Target: human GLP-1 receptor (human, UniProt P43220 24-463)
Test: cell-based or functional assay

| Binder | Cyclic AMP-producing activity, relative to naturally occurring GLP-1 (=100%), at 1 × 10^-10 M [%] | Cyclic AMP-producing activity, relative to naturally occurring GLP-1 (=100%), at 1 × 10^-11 M [%] | Cyclic AMP-producing activity, relative to naturally occurring GLP-1 (=100%), at × 10^-9 M [%] |
| --- | --- | --- | --- |
| HSEGTFTSDVSSYLEGQAAKEFIAWLVKGRRRRRRRRR-NH2 [[Ser^8]-GLP-1 (7-35)-Arg-Arg-Arg-Arg-Arg-Arg-Arg-Arg-Arg-NH2] | 87.4 | 74.5 | 95.9 |
| HSEGTFTSDVSSYLEGQAAKEFIAWLVKGRRRRRRR-NH2 [[Ser^8]-GLP-1 (7-35)-Arg-Arg-Arg-Arg-Arg-Arg-Arg-NH2] | 81.1 | 64.9 | 80.6 |
| HSEGTFTSDVSSYLEGQAAKEFIAWLVKGRRR-NH2 [[Ser^8]-GLP-1 (7-35)-Arg-Arg-Arg-NH2] | 95.5 | 56.4 | 91.2 |
| HSEGTFTSDVSSYLEGQAAKEFIAWLVKGKKR-NH2 [[Ser^8]-GLP-1 (7-35)-Lys-Lys-Arg-NH2] | 88.9 | 36.2 | 81.6 |
| HSEGTFTSDVSSYLEGQAAKEFIAWLVKGKR-NH2 [[Ser^8]-GLP-1 (7-35)-Lys-Arg-NH2] | 113 | 100 | 80.5 |
| HSEGTFTSDVSSYLEGQAAKEFIAWLVKGRKK-NH2 [[Ser^8]-GLP-1 (7-35)-Arg-Lys-Lys-NH2] | 104 | 53.2 | 88.8 |
| HSEGTFTSDVSSYLEGQAAKEFIAWLVKGR-NH2 [[Ser^8]-GLP-1 (7-35)-Arg-NH2] | 111 | 97.9 | 83.6 |
| HSEGTFTSDVSSYLEGQAAKEFIAWLVKGRRRR-NH2 [[Ser^8]-GLP-1 (7-35)-Arg-Arg-Arg-Arg-NH2] | 75.6 | -17 | 102 |
| HSEGTFTSDVSSYLEGQAAKEFIAWLVKGRRRRR-NH2 [[Ser^8]-GLP-1 (7-35)-Arg-Arg-Arg-Arg-Arg-NH2] | 64.7 | 34 | 106 |
| HSEGTFTSDVSSYLEGQAAKEFIAWLVKGKKKR-NH2 [[Ser^8]-GLP-1 (7-35)-Lys-Lys-Lys-Arg-NH2] | 96.6 | 45 | 86.7 |
| HSEGTFTSDVSSYLEGQAAKEFIAWLVKGRRRRRR-NH2 [[Ser^8]-GLP-1 (7-35)-Arg-Arg-Arg-Arg-Arg-Arg-NH2] | 48.6 | 54.3 | 75.6 |
| HSEGTFTSDVSSYLEGQAAKEFIAWLVKGKKKKKKKKKKR-NH2 [[Ser^8]-GLP-1 (7-35)-Lys-Lys-Lys-Lys-Lys-Lys-Lys-Lys-Lys-Lys-Arg-NH2] | 20.8 | 7.5 | 55.4 |
| HSEGTFTSDVSSYLEGQAAKEFIAWLVKGKKKKKR-NH2 [[Ser^8]-GLP-1 (7-35)-Lys-Lys-Lys-Lys-Lys-Arg-NH2] | 55.3 | 7.9 | 63.4 |
| HSEGTFTSDVSSYLEGQAAKEFIAWLVKGKKKKKKKR-NH2 [[Ser^8]-GLP-1 (7-35)-Lys-Lys-Lys-Lys-Lys-Lys-Lys-Arg-NH2] | 55.6 | 8.8 | 92.6 |
